Data on 20 sequences can be found in a protein production outcome set (Wang et al. 2014).

The series can be described thus: label from the status in PepcDB records.

For “MTSPLRPEDPTRVGDYDLVARIGKGGQGVVYLGKAPDGTRVAVKVMETSWASNSRARSRFAKEIEAASKVAPFCTAALLDSDINADPPYIVSEYIEGPSLRDAVLRDGPRTGAALDRLAISTATALVAIHQAGVIHRDFKPANVLLGPDGPRVIDFGIARHSEATVTATDSIVGTPAYMAPEQVEGRELTPAVDIFAWAGVMVFAATGQSPFHDETLPAIINRVLHQPPRLDGVDERLRPLLEACLAKEPERRPTAVQVLGVLVGHDPATLPQVPVEEVLENGYTAALNEQTQIAATAALPIPIGDQAPEPAPTAVMPAAEDTPAPESRTPVSGLAALAANRPADEAPASSPPSGPLRTTSGLAALVNTGENKQPTASSPGEGPPRRSAGPGHQPLPPRSTRERKTVLSWLVAAGILIIVLAGGWFLIDTFLLSPNGQSPEATPVDGTRRDTPAQDGIDDSVPSPSAIDPDTPTSSDTGYPGGELYPSLPYDDMSQTDPMEEPHLNPTIPGEGPWHSPPAGEEAPGQPHGGGAEEGGSEGGEQPGTGGPGGSGEGGAGVGRVAVSPAAP”, the protein production result is given as “failed”. In the case of “MTSRPSSDQTWQPIDGRVALIAPASAIATDVLEATLRQLEVHGVDYHLGRHVEARYRYLAGTVEQRLEDLHNAFDMPDITAVWCLRGGYGCGQLLPGLDWGRLQAASPRPLIGFSDISVLLSAFHRHGLPAIHGPVATGLGLSPLSAPREQQERLASLASVSRLLAGIDHELPVQHLGGHKQRVEGALIGGNLTALACMAGTLGGLHAPAGSILVLEDVGEPYYRLERSLWQLLESIDARQLGAICLGSFTDCPRKEVAHSLERIFGEYAAAIEVPLYHHLPSGHGAQNRAWPYGKTAVLEGNRLRW” it was “not failed”; in that of “MTSTHQAAHRTGSTMRLRILIATDTYPPDVNGASYFTYRLATGLAERGHDVHVVCASASGPPRVEVQDGVVLHRMRSVPVLVHPTMRTALPLGLTGHIARIVDRLAPHVVHVQSHFTISRTALRCGRMAGVPVVLTNHFMPDNLFAHAHIPPRLHGVVGSLAWQDMIRVARTADYVTTPTQRAAELLASKGFTRTVEAVSCGIDLDRFRPRPQDRAQARAHFGLPDRETMVFVGRLDEEKRIDESIRALPVLLRHRDVQLVLAGTGQRREELERLARSLGVAERVHFLGFVPDDDLPLVYVAADLFVIGSVAELQSIATLEAMSTGLPVVAADALALPHLVRPGRNGYLYPPGDVAQLAQRLLDVLESPDRRTAMGRASRDIAQTHDHHRSLDRFEQIYTEVRPRSWTLSRSASPAARQRDTTVAA”, “failed”. “MTSYSLEDFNTPLECAPLARWERKRKEQLDRTSKTPNKTPQGDRFIPNRNVMNIEVSRLNLQQEYYGKENNQNSSSLLDSHMDNVEWNSGKDSPACHHYQSALASSLLQNSYHEEHPQSKILTFKQKAPKPQEGYVNSLKVLYSQNMPQISEQRKRMIRHIPQTPDRILDAPELVDDYYLNLLDWNHENILAVALGSSVYLWNASTGDIQELCNVSQDEMICSVSWVPDGHHLAVGTSMKDVQLWDTQRGRQVRKMHSHSSRVGCLAWNGPILSSGSRDTTIHHHDVRIAQHHVETLRGHEQEVCGLKWNVDGSQLASGGNDNLLMIWDHFHSNQPKYRLDHHHAAVKAIAWCPWQTHLLASGGGTADRTIKFWNTTTGACLQSIDTKSQVCALIWNRHDKEIVSSHGFSQNQLIVWKYPSMVKMAELTGHTSRVLHLSLSPDGQTVVSGAGDETLRFWRVFEASESKLKSSNKTLGHSQKSIMRTCNIR”: the protein production entry is reported as “not failed”. Regarding “MTTDIDLEQGGAFGYHRRSLDGSDVSVYYSDGEDVMSCYSYFYSTTGGSYEYEGDQSRKVSSVMSPSSSEIDDDDATAPPEKDCRICHLGVETSGGGAIELGCSCKDDLAVAHRQCAETWFKIKGDKTCEICQSVARNVGGANEMVGSTMEERELRNGEETAAGEGGGATVVENRWQPQRVVNLVLACMVFGFFISWIFHFHVSSSS”, the protein production entry is reported as “failed”.

Consider “MTTDKQTSINLALSTINGKWKLSLMDELFQGTKRNGELMRALDGITQRVLTDRLREMEKDGLVHRESFNELPPRVEYTLTPEGYALYDALSSLCHWGETFAQKKARLNK”, for which the protein production entry is “not failed”. On to “MTTENTTALLLIDFQNDYFSTYNGAKNPLVGTEAAAEQGAKLLAKFRQQGLPVVHVRHEFPTDEAPFFLPGSDGAKIHPSVAAQEGEAVVLKHQINSFRDTDLKKVLDDAGIKKLVIVGAMTHMCIDAVTRAAEDLGYECAVAHDACATLDLEFNGITVPAAQVHAAFMSALSFAYANVASADELIAGL”, for which the protein production entry is “not failed”. With “MTTETFLVEIGTEELPPKALRSLAESFATHFTAELDNANITHGDVSWFAAPRRLAIKVANMAKSQADRIVEKRGPAIAQAFDAEGKPTKAAEGWARGNGITVDQAERLSTDKGEWLFYRAEVKGEAVNQLLAGMVSNALAKLPIPKLMRWGDKETHFVRPVHTVTLLLGDTLIDGEILGVQSARIIRGHRFMGEAEFTIDNADQYPEILYERGKVIADYENRKSIILHDARLAAEKLGGVADLSDSLVEEVTSLVEWPVVLTAKFEEKFLEVPAEALVYTMKGDQKYFPVYDKQGALLPHFIFVSNIESSDPQQIISGNEKVVRPRLADAEFFFKTDRKQRLEDNLPRLETVLFQKNLGSLRDKTDRIQALAGFIAEKMGADVNKATRAGLLSKCDLMTNMVFEFTDTQGVMGMHYARHDGEDEEVAVALKEQYQPRFAGDALPSNPVASAVAIAEKMDTLAGIFGIGQHPKGDKDPFALRRAALGVLRIIVEQDLPLDIEELTQEAARLYGDKLTNQNVVSDVVEFMLGRFRAWYQELGYSIDTIQAVLARRPTQPADFNARVKAVTYFRTLEEAAALAEANKRVSNILAKSADVKLNDKVLASVLKAPEEVQLAANLSVLQDKLAPLFAERKYQEALVELASLRDVVNNFFDKVMVMDKDEEIRVNRLTMLHELRELFLKVADISVLQ”, the protein production entry is given as “failed”. With “MTTFLQRDDFAVTARVLGALFYYSPESHETAPLVQALLNDDWQAQWPLDAEALAPVAAMFKTHSEESLPQAWQRLFIGPYALPSPPWGSVWLDRESVLFGDSTLALRQWMRENGIQFEMQQNEPEDHFGSLLLLAAWLAENDRHHECEQLLAWHLFPWSSRFLDVFIDHAGHPFYQALGQLARLTLAQWQAQLIIPVAVKPLFR”, the protein production result is given as “not failed”. Next, “MTTIAVLGNGRVGGNLATALTRAGHEVTVADRTPGAAADTARTAQIVINATPGAGSLDRLAALRDELRDKILVDVSNATNDGPDGLPADLIYPGSSLAEHLQEALPETRVVKTLNTMLFPVMTAPATLTQTPTAFLSGEDPQAKQTVRELLTDLGWHKEWIADLGGIQTARATEAAILFVPHVIGATGFTPFAISIARLEHHHHHH”: “not failed”. Next, “MTTIHFHNVYVASRGTSVGLLEKQGPLGNRFDYTHEDNTCQQDSFEKAERYMLQEAVDATIRKSDYSIKDIEVMIGGDLINQLTSSHYFAKEFPISFLGMYAACASSSLVIGQAALWVEHQLAKTALAFTSSHVATAERQFRFPNEYGIQKKETTTCTVTGAGAVLLSRKKSKLKVASFTVGKVVDWQYNDANDMGVAMAPAAYDTLTTYFKDTNQSFQDFDLIVTGDLSKLGFAFLRDLLLQNGYCCEEKLQDCGLMIYDIVKQNVFCGGSGCACSMCVSMTKLLDLLEQQEARRIMVLATGALLSPIAIQQKESIPCIAHAIVYERS”: “failed”; “MTTLYANVYLLSTPQGRLLLDTGTVNHAPAFARLLRSFDPDAVVVTHSHIDHAGNAFLAARLGYPVLAHPLEHDRLLGHDLSMPYPAGQPGVGRLVSRLHPRPGAERLGALYPGDTVRGWEVVHLPGHTDGQIGLQRDGVLLAADAVLSHPRTGAHLPREGYNWDHAVALQTLKKVADLDLHTVLPGHGRALDMAQVRARAVRDDEPGDRAEDAA”: “failed”. “MTTNSSSNTVVVYHSGYGHTHRMAEAVAEGAEATLHAIDAEGNLSEDGWAALDAADAIIFGTPTYMGGPSWQFKKFADASSKPWFSAKWQDKVFGGFTNSASLNGDKLNTLQYLVLLAGQHGGLWVSLGIKPSNLKSSVRNDANRMGSYIAPMAQSDADAAPEEMSVGDLETARLYGARVANVARQHKSTERV”: the protein production entry was “not failed”. Regarding “MTTPSASTRAVLEEACLSVGLDTTNAQPIRIAENAVWRLPGGVVVRVARPGQSAAAAREVQVARWLTAEGVPAVRALDLPQPVAASGHPVTFWQELPPHEIGTVTDVVVLLKQLHALPKPDLPLGELDPFVRLVERIDAAITISDDDQLWLKHRLEDLKQQWASRPKGLPECVVHGDAWVGNVARTEAGPMLLDFERASFGPPEWDLVSTAVKLTTTGAVSAEEYAAFCETYGVDVTEWEGYELLANARELRMVTYAAQHAASRPEWRREAQYRIDCLRGRAGAPPWRWKGII”, the protein production entry is recorded as “failed”. In the case of “MTTQSQFLVNLSYGGLASQSNLRANNRVSPSSCQITRTNRSWALPVSFKVEKFQLQRGRRRRGSPCFGESEGLVKNGIGDADGIIIVDHGSRRRESNLMLEEFVKMFKEKTGYPIVEPAHMELAEPSIKDAFSLCVQQGAKRVVVSPFFLFPGRHWHTDIPSLTADAAKEFSGISYLITAPLGPHNLLLDVVNDRIQHCLSHVEGDADECLVCAGTNKCKLYNSS” it was “failed”.

For “MTTRDRTAIFKRYREESVVAKRKRSGNDGIQTIGNQSLSGNHKELAPFLNKGSIQTDSHTVFLPPQWLDWYEELSNSVDSVTHQLAQLESLQQNHLLPGFEERSDEESQISELSRNITLLLQRSQERIRLLAPSSSEPNISSEEKLLRTNAQKYFASKLQELSLSFRRNQKEYLRKLQGQNALVEESTDENPLSTSLELEEYDPGFTQEQVMLLENSDQVASERQREIMKIASSINDLATIVKDIASLVIDQGTLLDRIDYNVEEIEVSTEGAVKELEKAKRSQKKG”, the protein production result is “failed”. In the case of “MTTTKDVPIDLKASGKTAADTSYSFSSDTKSVTVTGTKAALAKLKSLPVNVDVTNVDSTTTKTVDVSTSDEDGISSVSPTSVKVKITVKNDLEHHHHHH”, the protein production entry is recorded as “not failed”. Next, “MTTTLSPDTARQIVPPEERYAAELAFLAAYDDGPRPPAWRLTPRAVVTFVMGSDGRALRLPEGAETPEGVPRRLTVEGKFVGDRSLVERCVVTLAGERGLLLVGEPGTAKSMLSELLSAAVCGTSGLVVQGTAGTTEDQLKYGWNYALLLAQGPSRTALVPSPVLTAMARGGIARVEEVTRCLPEVQDALVSLLSERRIAVPELSGTDDALAHAAPGFNLIATANLRDKGVSEMSAALKRRFNFETVGPIPDLDAETALVRSQARASVERAGAPFKVDEAVLEALVVAFRDLREGRSTEGWEVERPSTVMSTAEAVSVAGALGLAAAYFPGDRDVLGLLPGHLLGVVRKDDPADAARLRGYWDGPVRRRAEQGSATWRTLWDLRTVLEGLEHHHHHH”: “failed”. In the case of “MTTTNEQEQSRAYILAGLFTLSLRLVVGWTYFSAFWRRLVLENKLIPDSAGYIGEKFNHFLPNSIGIRPVIEYLVSTPDMLWWAMVIFTLVEGIVGLLYMLGFFTRLMSIGVFSLATGILLGSGWLGTTCLDEWQIGILGIAAGFTIFLSGGGKYSVDHLIERKFSLKKKAAWLSWLTSGELPVSAKRFANVSVAGAIVIFTLSLYTNQEFHNGVWGPLHNKSVKPKIEISDAQIENNSLSFSVYRVEGVDVYGSFLIGISLKNADGDIVLEKKGEELADFPIGNIDNKYIARVAPGKHSLVIPLGSKATLTVDDTAIGSLPKGKYELVLTDISGITWKKEIIH” it was “failed”. In the case of “MTTTPDWIMIGGDGPESYNQQSSYQRALLEATKDKMTKAISANLDLDLISNRFIVADFGCASGPNTFVAVQNIIDAVEEKYRRETGQNPADNIEFQVLFNDFSLNDFNTLFQTLPPGRRYFSAGVPGSFFERVLPKESFHIGVMSYAFHFTSKIPKGIMDRDSPLWNKDMQCTGFNPAVKKAYLDQYSIDTKILLDARAEELVPGGLMLLLGSCLRDGVKMSETPKGTVMDFIGESLSDLAKQGVTEQEKVDTFRTSIYFAEQGEIRQIIEENGKFTIEAFEDIIHAKNEFPFDPKTLAISFKAFYGAFISAHFGVEVMRKAFELVEVKAREQISRLHNSKPGMQYLIVLRKN” it was “failed”.
